Laboratory results taken from doi:10.1101/266833 (bioRxiv, 2018).

Target: T1, yUpf1-HD (220-851) (S. cerevisiae, UniProt P30771 220-851)
T1 sequence (looked up): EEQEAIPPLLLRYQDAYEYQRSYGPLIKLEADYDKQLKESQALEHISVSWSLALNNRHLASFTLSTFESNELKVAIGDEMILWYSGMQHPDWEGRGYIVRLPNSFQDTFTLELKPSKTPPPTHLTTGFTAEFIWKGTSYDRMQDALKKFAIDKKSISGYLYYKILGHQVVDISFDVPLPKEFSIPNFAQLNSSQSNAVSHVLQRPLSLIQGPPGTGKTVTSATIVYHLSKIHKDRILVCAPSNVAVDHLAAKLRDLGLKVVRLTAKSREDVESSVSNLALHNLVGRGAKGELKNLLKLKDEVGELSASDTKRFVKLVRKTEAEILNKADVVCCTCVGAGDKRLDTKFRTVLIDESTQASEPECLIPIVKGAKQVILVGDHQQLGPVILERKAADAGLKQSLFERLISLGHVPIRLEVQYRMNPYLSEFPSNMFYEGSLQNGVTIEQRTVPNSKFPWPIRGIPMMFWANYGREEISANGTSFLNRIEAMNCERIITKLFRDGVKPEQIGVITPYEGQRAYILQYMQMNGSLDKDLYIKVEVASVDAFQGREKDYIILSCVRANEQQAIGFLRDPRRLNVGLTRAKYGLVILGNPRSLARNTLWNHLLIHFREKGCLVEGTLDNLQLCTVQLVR
Assay: pull-down

B1: CBP-Nmd4 (natural protein, S. cerevisiae, UniProt Q12129 1-218, looked up)
chain: MTQYNFIIDASAFEKGLGNIKRWCSDCTEAVTLNFYIPTFTLNELDFLQQRRKSFAARESLKFIDRLDDSKFANLKVFIEFPEVLDIILWSDVMEHNDSSGKINIAKLPKRLKNLLKSCIYKCYLEGNEGLHWFLISEDPQIREMAMQCNIPSCSIVDVDSILSKDMNDKSFRESEKFNNMMLKNGTKEESENGREIIRTNFNKTVYASRGTGELWSP
B1: binds.
